Assay results reported in patent US20090123479A1 (published 2009).

T1: recombinant human IL-23 (human, UniProt Q9NPF7 20-189; P29460 23-328)
T1 construct: also called hIL-23
T1 sequence 1: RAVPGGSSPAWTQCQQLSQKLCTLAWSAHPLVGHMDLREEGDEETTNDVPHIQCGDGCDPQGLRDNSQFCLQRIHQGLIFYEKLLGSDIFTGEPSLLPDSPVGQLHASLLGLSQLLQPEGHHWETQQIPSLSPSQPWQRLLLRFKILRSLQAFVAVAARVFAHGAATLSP
T1 sequence 2: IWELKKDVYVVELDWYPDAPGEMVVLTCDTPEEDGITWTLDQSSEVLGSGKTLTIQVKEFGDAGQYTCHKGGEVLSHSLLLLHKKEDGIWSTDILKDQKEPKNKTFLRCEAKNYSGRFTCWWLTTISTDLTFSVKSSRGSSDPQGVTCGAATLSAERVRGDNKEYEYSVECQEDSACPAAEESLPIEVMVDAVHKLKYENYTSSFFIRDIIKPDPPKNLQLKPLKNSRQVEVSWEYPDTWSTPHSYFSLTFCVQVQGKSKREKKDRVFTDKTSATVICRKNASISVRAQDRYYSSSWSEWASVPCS

B1: chimeric 8C92H6 HC1LC1 (antibody, V domains shown)
VH: QVQLQQSGAELARPGTSVKLSCKASGYTFTSYGITWVKQRTGQGLEWIGENYPRSGNTYYNEKFKGKATLTADKSSSTAYMELRSLTSEDSAVYFCARCEFISTVVAPYYYALDYWGQGTSLVTVS
VL: DIVLTQSPASLAVSLGQKATISCKASKKVTIFGSISALHWYQQKPGQPPKLIYNGAKLESGVSARFSDSGSQNRSPFGNQLSFTLTIDPVEADDAATYYCLQNKEVPYTFGGGTKLEIKR
notes: Murine variable regions with human constant regions; also called 8C92H6.HC1LC1 Chimera; 8C9 chimera
B2: A3M0 (antibody, human IgG1, kappa, V domains shown)
VH: QVQLVQSGAEVKKPGSSVKVSCKASGYTFTSYGITWVRQAPGQGLEWMGENYPRSGNTYYNEKFKGRVTITADKSTSTAYMELSSLRSEDTAVYYCARSEFISTVVAPYYYALDYWGQGTLVTVSS
VL: DIVMTQSPDSLAVSLGERATINCKASKKVTIFGSISALHWYQQKPGQPPKLIYNGAKLESGVPDRFSGSGSGTDFTLTISSLQAEDVAVYYCLQNKEVPYTFGGGTKVEIKR
notes: Full length chains; also called humanized mAb A3M0

Columns and labels:
[1] = biological target: T1, recombinant human IL-23; test: sandwich ELISA (optimised protocol, OD450): plate coated with anti-human IL-12, antibody pre-incubated with constant human IL-23, bound antibody detected with anti-human IgG gamma chain HRP; purified antibody
Procedure: Optimised assay conditions: Plates were coated with anti human IL12 at 2 μg/diluent (phosphate buffered saline). 50 μl/well of this mixture was incubated overnight at 4° C. The plates were then washed three times with Phosphate Buffered Saline with 0.05% Tween 20 (PBST). Plates were blocked with 4% skim milk powder (Fluka BioChemika #70166) PBS 200 μl/well for a minimum of 1 hour at room temperature. The plates were then washed three times with Phosphate Buffered Saline+0.05% Tween 20 (PBST). Various concentrations of antibody were incubated in a separate plate with a constant concentration of IL-23 for 1 hour at room temperature. 50 ul of each mixture were transferred to the assay plate and incubated at RT for 1 hr. They were then washed three times with Phosphate Buffered Saline+0.05% Tween 20 (PBST). […] 50 μl/well of the detection antibody was added and incubated at RT for 1 hour. The plates were then washed three times with Phosphate Buffered Saline+0.05% Tween 20 (PBST). 50 μl/well of TMB was added to the plates and incubated at RT for 10 min. 50 μl/well of 1 MH₂SO₄ was added. The plate was read at OD450 nm using the SOftmaxPRO versamax plate reader.

[2] = biological target: T1, recombinant human IL-23; test: IL-23/IL-23R inhibition ELISA (first protocol, OD490): plate coated with human IL23R Fc chimera, antibody pre-incubated with constant human IL-23, bound IL-23 detected with biotinylated anti-human IL-12; tissue culture supernatant
Procedure: Chimeric and humanized mAbs were assessed for their ability to neutralise human IL-23 binding to human IL-23 receptor, and cyno IL23 binding to human IL23 receptor. Plates were coated with human IL23R Fc chimera at 1 μg/diluent (bicarbonate buffer). 50 μl/well of this mixture was incubated overnight at 4° C. The plates were then washed twice with Tris Buffered Saline with 0.05% Tween 20 (TBST). Plates were blocked with 1% BSA TBST 100 μl/well for a minimum of 1 hour at room temperature. The plates were then washed twice with Tris Buffered Saline with 0.05% Tween 20 (TBST). Various concentrations of antibody were incubated in a separate plate with a constant concentration of IL-23 for 1 hour at room temperature. 50 ul of each mixture were transferred to the assay plate and incubated at RT for 1 hr. They were then washed twice with Tris Buffered Saline with 0.05% Tween 20 (TBST). Bound IL23 was detected by anti human 1L12 Biotin labelled Ab (R&D systems BAF219) diluted to 100 ng/ml in 1% BSA TBST. 50 μl/well of the biotinylated antibody was added and incubated at RT for 1 hour. The plates were then washed twice with Tris Buffered Saline with 0.05% Tween 20 (TBST). ExtrAvidin-Peroxidase (Sigma E2886) was diluted 1/1000 in 1% BSA TBST, 50 μl/well was added to the plates. […] The plate was read at OD490 nm using the SOftmaxPRO versamax plate reader.

[3] = biological target: T1, recombinant human IL-23; test: SPR (Biacore T100), purified antibody captured on anti-human IgG, IL-23 analyte, 1:1 model
Procedure: (§1) Biacore analysis was carried out using a capture surface on a CM5 chip. Anti-human IgG (BR-1008-39) was used as the capturing agent. Anti-human IgG was coupled to a CM5 biosensor chip by primary amine coupling. Humanized antibody was captured on this immobilised surface and defined concentrations of IL-23 were passed over this captured surface. An injection of buffer over the captured antibody surface was used for double-referencing. […] T100 Biacore machine was used to generate the data; all runs were carried out at 25° C. using HBS EP. Data was analysed using the software inherent to the machine and fitted to the 1:1 model of binding. Tables 7 and 8 detail the IL-23 binding analysis carried out on the 8C92H6.HC1LC1 chimera and selected humanized variants in two separate experiments. Data presented in Tables 7 and 8 are from purified antibody samples. The data shown for the humanized variants is representative of a number of runs. The chimeric mAb (8C9H6.HC1LC1) was only run once in each experiment, so data shown for this mAb is from that one run.

[4] = biological target: T1, recombinant human IL-23; test: SPR (Biacore T100), tissue culture supernatant antibody captured on anti-human IgG, IL-23 analyte
Procedure: as §1, with “Data presented in Tables 7 and 8 are from purified antibody samples.” left out

| Binder | EC50 (read off the curve) [1] [nM] | IC50 (read off the curve) [2] [ng/mL] | Kd [3] [nM] | koff [3] [s⁻¹] | kon [3] [M⁻¹ s⁻¹] | Kd [4] [nM] | koff [4] [s⁻¹] | kon [4] [M⁻¹ s⁻¹] |
| --- | --- | --- | --- | --- | --- | --- | --- | --- |
| B1 | ~0.06 | ~6 |  |  |  |  |  |  |
| B2 |  |  | 0.194 | 0.000237 | 1.22e+06 | 0.17 | 0.000234 | 1.38e+06 |
